In US20220387578A1 (VANDERBILT UNIVERSITY, published 2022) one finds Kd data, which are given here for two molecules.

The assay has as its target T1, eHead_H1_v3.1_mC.
T1 chain: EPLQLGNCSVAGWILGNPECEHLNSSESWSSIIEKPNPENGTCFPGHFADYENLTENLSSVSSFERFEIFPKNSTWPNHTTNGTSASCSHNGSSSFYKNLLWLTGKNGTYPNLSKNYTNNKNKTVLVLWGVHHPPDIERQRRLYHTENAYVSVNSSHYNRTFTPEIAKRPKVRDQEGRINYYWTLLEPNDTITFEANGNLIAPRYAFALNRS
The assay is described as follows: SPR. In general terms: Surface plasmon resonance follows binding to a sensor surface in real time, without labels.

B1: FluA20 (as used in the SPR experiments of Example 4) (antibody, V domains shown)
VH: QVQLQESGPGLVKPSETLSLTCSVSGVSVTSDIYYWTWIRQPPGKGLEWIGYIFYNGDTNYNPSLKSRVTMSIDTSKNEFSLRLTSVTAADTAVYFCARGTEDLGYCSSGSCPNHWGQGTLVTVSS
VL: DIQMTQSPSSLSASIGDRVTITCRPSQNIRSFLNWFQHKPGKAPKLLIYAASNLQSGVPSRFSGSGSGTEFTLTIRSLQPEDFATYYCQQSYNTPPTFGQGTKVEIK
What is called Kd is the constant that tells how readily two partners part at equilibrium. Low values mean tighter binding, high ones weaker binding. Molecule B1 displayed a Kd of 2.8 nM.

B2: FluA20_UCA (as used in the SPR experiments of Example 4) (antibody, V domains shown)
VH: QVQLQESGPGLVKPSETLSLTCTVSGGSVSSGSYYWSWIRQPPGKGLEWIGYIYYSGSTNYNPSLKSRVTISVDTSKNQFSLKLSSVTAADTAVYYCARGTEDLGYCSGGSCPNHWGQGTLVTVSS
VL: not shown
In turn, B2 displayed a Kd of 220 nM.
